Like-named read-outs stand apart in the source and are kept apart here.
Columns and labels:
[1] = Urea titration of emission intensity spectra (Nanodrop3300) with ratiometric analysis, singly labeled conjugates; format: binding; design: key to Acrylodan Intensity / Badan Intensity: +, increases in response to urea; −, decreases; 0, no change; key to Badan Dipoles / Acrylodan Dipoles: blue, (maxima <500 nm); g, green (maxima >500 nm); b/g, mixed population; key to Acrylodan Shape / Badan Shape: m, monochromatic; d, dichromatic (i.e. spectral shape changes); 0, no change; details: for Acrylodan Intensity / Badan Intensity: emission intensity change on urea; for Acrylodan Shape / Badan Shape: emission spectrum shape change on urea; for Kd: urea; for Badan Dipoles / Acrylodan Dipoles: estimated change in populations of major emission bands
Description: Determination of emission intensity spectra.
Ratiometric analysis of urea binding. […] 2
For a single urea-binding site, the fractional saturation is given by
[formula] where [L] is the ligand (urea) concentration and Kd the dissociation constant, ^trueKd for ytrue.
[formula] where ^appIλ2 and ^satIλ2 are the emission intensities of the monochromatic signal at wavelength λ2 of the ligand-free and ligand-bound protein, respectively.

[2] = Temperature- and urea-dependent fluorescence landscapes of fluorescent conjugates (Roche LightCycler); format: binding; design: key: y, yes; n, no; details: fluorescent response to urea
Procedure, shortened: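 Acrylodan or Badan was attached to single-cysteine csUBP7 mutants and fluorescence was recorded over 0–4.8 M urea in 20 mM KCl, 20 mM MOPS (pH 7.4), with temperature stepped by 1K. Urea Kd came from ratiometric single-site fits, and Kd values across temperatures were fit to the Gibbs-Helmholtz equation.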

[3] = csUBP7 Badan conjugate, read-out: Badan ^trueKd

Kd ([1]; csUBP7 Acrylodan conjugate, read-out: Acrylodan ^trueKd) [mM] | Kd [1, 3] [mM] | Molecule | Acrylodan Intensity ([1]; csUBP7 Acrylodan conjugate) | Acrylodan Shape ([1]; csUBP7 Acrylodan conjugate) | Badan Intensity ([1]; csUBP7 Badan conjugate) | Badan Shape ([1]; csUBP7 Badan conjugate) | Badan Dipoles ([1]; csUBP7 Badan conjugate) | Response ([2]; Acrylodan conjugate) | Response ([2]; Badan conjugate) | Acrylodan Dipoles ([1]; csUBP7 Acrylodan conjugate)
3.4 | 16 | csUBP7 Y157C: csUBP7 157C cysteine mutant (SEQ ID NO: 37), tested as Acrylodan and Badan conjugates (conjugate, Acrylodan or Badan conjugate; csUBP7_157C (157C substitution mutant with signal peptide replaced with M and a GGSHHHHHH at C-terminus, and also comprising a C89A substitution)) MSSSESEKEKSEETIKVGILHSLSGTMSISEVSLKDAELMAIEEINNNGGVLGKKLEPIVEDGASDWPTFAEKAKKLLQKDKVAVIFGAWTSASRKAVLPVVEENNGLLFYPVQYEGLESSPNIFYMGAAPNQQIVPAVKWLFDNGKKRFYLLGSDCVFPRTANKIIKAYLKYLGGVVVGEEYTPLGHTDYSSVINKIKAAKPDVVFNTLNGDSNVAFFKQLKDAGIDANTLPVMSVSIAEEEIKGIGPEYLKGHLVTWNYFQSVDTPENKEFVEKYKKKYGEDRVTDDPIEAAYIGVYLWAKAVEKAGSTDVDKVREAAKGIEFNAPEGPVKIDGDNQHLYKTVRIGEILENGQIRELWKTNKPVKPDPYLKGYEWAQGLSEQGGSHHHHHH | + | m | + | m | b/g | y | y | 
 | 15 | csUBP7 N211C: csUBP7 211C cysteine mutant (SEQ ID NO: 41), tested as Acrylodan and Badan conjugates (conjugate, Acrylodan or Badan conjugate; csUBP7_211C (211C substitution mutant with signal peptide replaced with M and a GGSHHHHHH at C-terminus, and also comprising a C89A substitution)) MSSSESEKEKSEETIKVGILHSLSGTMSISEVSLKDAELMAIEEINNNGGVLGKKLEPIVEDGASDWPTFAEKAKKLLQKDKVAVIFGAWTSASRKAVLPVVEENNGLLFYPVQYEGLESSPNIFYMGAAPNQQIVPAVKWLFDNGKKRFYLLGSDYVFPRTANKIIKAYLKYLGGVVVGEEYTPLGHTDYSSVINKIKAAKPDVVFNTLCGDSNVAFFKQLKDAGIDANTLPVMSVSIAEEEIKGIGPEYLKGHLVTWNYFQSVDTPENKEFVEKYKKKYGEDRVTDDPIEAAYIGVYLWAKAVEKAGSTDVDKVREAAKGIEFNAPEGPVKIDGDNQHLYKTVRIGEILENGQIRELWKTNKPVKPDPYLKGYEWAQGLSEQGGSHHHHHH |  | 0 | + | d | g→b/g | y | y | g (g, green (maxima >500 nm))
 |  | csUBP7 L186C: csUBP7 186C cysteine mutant (SEQ ID NO: 40), tested as Acrylodan and Badan conjugates (conjugate, Acrylodan or Badan conjugate; csUBP7_186C (186C substitution mutant with signal peptide replaced with M and a GGSHHHHHH at C-terminus, and also comprising a C89A substitution)) MSSSESEKEKSEETIKVGILHSLSGTMSISEVSLKDAELMAIEEINNNGGVLGKKLEPIVEDGASDWPTFAEKAKKLLQKDKVAVIFGAWTSASRKAVLPVVEENNGLLFYPVQYEGLESSPNIFYMGAAPNQQIVPAVKWLFDNGKKRFYLLGSDYVFPRTANKIIKAYLKYLGGVVVGEEYTPCGHTDYSSVINKIKAAKPDVVFNTLNGDSNVAFFKQLKDAGIDANTLPVMSVSIAEEEIKGIGPEYLKGHLVTWNYFQSVDTPENKEFVEKYKKKYGEDRVTDDPIEAAYIGVYLWAKAVEKAGSTDVDKVREAAKGIEFNAPEGPVKIDGDNQHLYKTVRIGEILENGQIRELWKTNKPVKPDPYLKGYEWAQGLSEQGGSHHHHHH | − | d |  | 0 | g (g, green (maxima >500 nm)) | y | n | b/g→g
